Test results reported in publication PMC11558545, “Mechanistic Insights into the Function of 14-3-3 Proteins as Negative Regulators of Brassinosteroid Signaling in Arabidopsis” (Plant and Cell Physiology, 2024).

Molecular target: T1, Arabidopsis 14-3-3 isoform kappa (14-3-3κ) (Arabidopsis thaliana, UniProt P48348)
T1 construct: Full-length At14-3-3-κ^1−248 (Uniprot-ID P48348, http://uniprot.org); thioredoxin A (trxA) fusion (N, cleaved yes); 8xHis (N, cleaved yes); StrepII (N, cleaved yes); made in house; host or cells: E. coli BL21 (DE3) RIL
T1 sequence (P48348 whole entry, the tested form may be a part, canonical isoform): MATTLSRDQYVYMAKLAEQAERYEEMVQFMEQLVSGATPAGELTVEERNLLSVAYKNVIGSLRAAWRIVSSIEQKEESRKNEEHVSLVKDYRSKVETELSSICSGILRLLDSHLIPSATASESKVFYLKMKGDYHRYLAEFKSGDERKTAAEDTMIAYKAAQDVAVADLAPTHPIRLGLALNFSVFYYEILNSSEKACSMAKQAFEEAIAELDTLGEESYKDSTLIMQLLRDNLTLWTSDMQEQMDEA
Experiment: biochemical
Format: binding
Conditions: ITC; proteins auto-/transphosphorylated or expressed in E. coli or insect cells as described
Source text: Full-length At14-3-3-κ^1−248 (Uniprot-ID P48348, http://uniprot.org), At14-3-3-λ^1−248 (P48349), At14-3-3-ω^1−259 (Q01525) or C-terminal truncated At14-3-3-κ^1−240, At14-3-3-λ^1−240 or At14-3-3-ω^1−237 isoforms and BIN2^7−380 from Arabidopsis were cloned from synthetic genes codon-optimized for expression in E. coli (Geneart, Thermofisher, Tauberbischofsheim, Germany) into vector pMH-HStrxT providing an N-terminal thioredoxin A (trxA) fusion protein containing 8xHis and StrepII affinity tags, and a tobacco etch virus protease (TEV) recognition site. Protein expression in E. coli BL21 (DE3) RIL grown to OD600nm= 0.6 was induced with 0.2 mM ispropyl β-D-galactoside in terrific broth at 16°C for 16 h. Cells were collected by centrifugation at 4500 × g for 30 min, washed in PBS buffer, centrifuged again at 4500 × g for 15 min and snap-frozen in liquid N2. For protein purification cells were resuspended in buffer A (20 mM Tris–HCl pH 8.0, 500 mM NaCl), and lysed by sonication (Branson DS450). The lysate was cleared by centrifugation at 7000 × g for 60 min and filtrated using a 0.45 µm molecular weight cutoff filter (Pall Corporation, Port Washington, NY, USA). The supernatant was loaded onto a Ni^2+ affinity column (HisTrap HP 5 mL, Cytiva Life Sciences, Freiburg im Breisgau, Germany), washed with buffer A and eluted in buffer A supplemented with 250 mM imidazole pH 8.0. The elution fractions containing the trxA-14-3-3 or trxA-BIN2 fusion proteins were loaded onto a 5 mL Strep-Tactin Superflow High Capacity column (IBA Lifesciences, Goettingen, Germany), washed with buffer A and eluted in buffer A supplemented with 2.5 mM desthiobiotin. […] Dimeric (14-3-3s) or monomeric (BIN2) peak fractions were concentrated to 10–40 mg/ml and used directly for biochemistry and crystallization experiments. Point mutations were introduced by site-directed mutagenesis and variants At14-3-3 λ^N233A and 14-3-3 λ^R136L/Y137F were purified using the same protocol as described for the wild type.
The BRI1^814−1196 and BAK1^250−615/SERK3 cytoplasmic domains were purified as previously described ([Bojar et al. 2014]). BSK1 (residues 55–512), BSU1 (residues 1–793) and BIN2 (residues 7–380) were cloned into a modified pACEBac1 plasmid ([Bieniossek et al. 2012]) providing TEV-cleavable N-terminal 8xHis and tandem StrepII affinity tags, and expressed in baculovirus-infected Trichoplusia ni Tnao cells ([Hashimoto et al. 2010]). Cells grown to a density of 1.5 × 10^6 cells ml^−1 were infected with 10 ml of virus subjected to two rounds of viral amplification per 250 ml of cells and incubated for 48 h at 28°C. […]

Molecule	binding to 14-3-3κ, in words
BAK1^250-615: BAK1/SERK3 cytoplasmic domain (residues 250–615) after incubation with BRI1^814−1196 (protein, auto- and transphosphorylated by incubation with BRI1^814−1196; sites not given) RRKKPQDHFFDVPAEEDPEVHLGQLKRFSLRELQVASDNFSNKNILGRGGFGKVYKGRLADGTLVAVKRLKEERTQGGELQFQTEVEMISMAVHRNLLRLRGFCMTPTERLLVYPYMANGSVASCLRERPESQPPLDWPKRQRIALGSARGLAYLHDHCDPKIIHRDVKAANILLDEEFEAVVGDFGLAKLMDYKDTHVTTAVRGTIGHIAPEYLSTGKSSEKTDVFGYGVMLLELITGQRAFDLARLANDDDVMLLDWVKGLLKEKKLEALVDVDLQGNYKDEEVEQLIQVALLCTQSSPMERPKMSEVVRMLEGDGLAERWEEWQKEEMFRQDFNYPTHHPAVSGWIIGDSTSQIENEYPSGPR	No specific binding was detected
BIN2^7-380: BIN2 (residues 7–380) expressed either in Escherichia coli or in insect cells (protein, left off: thioredoxin A, N-terminal, cleaved | 8xHis, N-terminal, cleaved | StrepII, N-terminal, cleaved, BIN2 (residues 7–380) expressed either in Escherichia coli or in insect cells) MPAAVVDGHDQVTGHIISTTIGGKNGEPKQTISYMAERVVGTGSFGIVFQAKCLETGETVAIKKVLQDRRYKNRELQLMRVMDHPNVVCLKHCFFSTTSKDELFLNLVMEYVPESLYRVLKHYSSANQRMPLVYVKLYMYQIFRGLAYIHNVAGVCHRDLKPQNLLVDPLTHQVKICDFGSAKQLVKGEANISYICSRFYRAPELIFGATEYTTSIDIWSAGCVLAELLLGQPLFPGENAVDQLVEIIKVLGTPTREEIRCMNPHYTDFRFPQIKAHPWHKIFHKRMPPEAIDFASRLLQYSPSLRCTALEACAHPFFDELREPNARLPNGRPFPPLFNFKQEVAGSSPELVNKLIPDHIKRQLGLSFLNQSGT	No specific binding was detected
BRI1^814-1196: isolated BRI1 cytoplasmic domain (residues 814–1196) after incubation with the BAK1 cytoplasmic domain (protein, auto- and transphosphorylated by incubation with BAK1^250−615; sites not given, isolated BRI1 cytoplasmic domain (residues 814–1196) after incubation with the BAK1 cytoplasmic domain) GREMRKRRRKKEAELEMYAEGHGNSGDRTANNTNWKLTGVKEALSINLAAFEKPLRKLTFADLLQATNGFHNDSLIGSGGFGDVYKAILKDGSAVAIKKLIHVSGQGDREFMAEMETIGKIKHRNLVPLLGYCKVGDERLLVYEFMKYGSLEDVLHDPKKAGVKLNWSTRRKIAIGSARGLAFLHHNCSPHIIHRDMKSSNVLLDENLEARVSDFGMARLMSAMDTHLSVSTLAGTPGYVPPEYYQSFRCSTKGDVYSYGVVLLELLTGKRPTDSPDFGDNNLVGWVKQHAKLRISDVFDPELMKEDPALEIELLQHLKVAVACLDDRAWRRPTMVQVMAMFKEIQAGSGIDSQSTIRSIEDGGFSTIEMVDMSIKEVPEGKL	No specific binding was detected
BSK1^55-512: BSK1 (residues 55–512) after incubation with BRI1^814−1196 (protein, phosphorylated by incubation with BRI1^814−1196 (mainly Ser230); left off: 8xHis, N-terminal, cleaved | tandem StrepII, N-terminal, cleaved) IPSFSEFSFADLKAATNNFSSDNIVSESGEKAPNLVYKGRLQNRRWIAVKKFTKMAWPEPKQFAEEAWGVGKLRHNRLANLIGYCCDGDERLLVAEFMPNDTLAKHLFHWENQTIEWAMRLRVGYYIAEALDYCSTEGRPLYHDLNAYRVLFDEDGDPRLSCFGLMKNSRDGKSYSTNLAYTPPEYLRNGRVTPESVTYSFGTVLLDLLSGKHIPPSHALDMIRGKNIILLMDSHLEGKFSTEEATVVVELASQCLQYEPRERPNTKDLVATLAPLQTKSDVPSYVMLGIKKQEEAPSTPQRPLSPLGEACSRMDLTAIHQILVMTHYRDDEGTNELSFQEWTQQMKDMLDARKRGDQSFREKDFKTAIDCYSQFIDVGTMVSPTVFGRRSLCYLLCDQPDAALRDAMQAQCVYPDWPTAFYMQSVALAKLNMNTDAADMLNEAAQLEEKRQRGGRGS	No specific binding was detected
